# According to paper PMC5000626, “Urinary Dopamine as a Potential Index of the Transport Activity of Multidrug and Toxin Extrusion in the Kidney” (International Journal of Molecular Sciences, 2016):
# B1: mMATE1 (Mus musculus) (protein)
# chain: MERTEESAPGPGGADAASERRGLRCLLLPGFLEELRALLVLAGPAFLAQLMMFLISFISSVFCGHLGKLELDAVTLAIAVINVTGISVGHGLSSACDTLISQTYGSQNLKHVGVILQRGTLILLLCCFPCWALFINTEQILLLFRQDPDVSRLTQTYVMIFIPALPAAFLYTLQVKYLLNQGIVLPQIMTGIAANLVNALANYVFLYHLHLGVMGSALANTISQFALAIFLFLYILWRRLHQATWGGWSWECLQDWASFLRLAIPSMLMLCIEWWAYEVGSFLSGILGMVELGAQSITYELAIIVYMIPSGFSVAANVRVGNALGAGNIDQAKKSSAISLIVTELFAVTFCVLLLGCKDLVGYIFTTDRDIVALVAQVIPIYAVSHLFEGLACTCGGILRGTGNQKVGAIVNAIGYYVIGLPIGIALMFAAKLGVIGLWSGIIICTTCQTTCFLAFIARLNWKRACQQAQVHANLKVNVALNSAVSHEPAHPVCPESHGEIMMTDLEKKDETQLDQPMNQQQALPIRPKDSNKLSGKQLALRRGLLLLGVVLVLVGGILVRVYIRIE
# Substrate: NCCc1ccc(O)c(O)c1
# Assay: cells, lysate or membranes
# Details: other: [3H]dopamine uptake at 1 min, HEK293 cells expressing mMATE1, mean ± S.E., n=3; pH 7.4; 37.0 °C
protein,measurement,value
B1,Km,530 ± 80 µM
